B1: ALK tyrosine kinase receptor (Homo sapiens), Q9UM73 (parent)
chain: MGAIGLLWLLPLLLSTAAVGSGMGTGQRAGSPAAGPPLQPREPLSYSRLQRKSLAVDFVVPSLFRVYARDLLLPPSSSELKAGRPEARGSLALDCAPLLRLLGPAPGVSWTAGSPAPAEARTLSRVLKGGSVRKLRRAKQLVLELGEEAILEGCVGPPGEAAVGLLQFNLSELFSWWIRQGEGRLRIRLMPEKKASEVGREGRLSAAIRASQPRLLFQIFGTGHSSLESPTNMPSPSPDYFTWNLTWIMKDSFPFLSHRSRYGLECSFDFPCELEYSPPLHDLRNQSWSWRRIPSEEASQMDLLDGPGAERSKEMPRGSFLLLNTSADSKHTILSPWMRSSSEHCTLAVSVHRHLQPSGRYIAQLLPHNEAAREILLMPTPGKHGWTVLQGRIGRPDNPFRVALEYISSGNRSLSAVDFFALKNCSEGTSPGSKMALQSSFTCWNGTVLQLGQACDFHQDCAQGEDESQMCRKLPVGFYCNFEDGFCGWTQGTLSPHTPQWQVRTLKDARFQDHQDHALLLSTTDVPASESATVTSATFPAPIKSSPCELRMSWLIRGVLRGNVSLVLVENKTGKEQGRMVWHVAAYEGLSLWQWMVLPLLDVSDRFWLQMVAWWGQGSRAIVAFDNISISLDCYLTISGEDKILQNTAPKSRNLFERNPNKELKPGENSPRQTPIFDPTVHWLFTTCGASGPHGPTQAQCNNAYQNSNLSVEVGSEGPLKGIQIWKVPATDTYSISGYGAAGGKGGKNTMMRSHGVSVLGIFNLEKDDMLYILVGQQGEDACPSTNQLIQKVCIGENNVIEEEIRVNRSVHEWAGGGGGGGGATYVFKMKDGVPVPLIIAAGGGGRAYGAKTDTFHPERLENNSSVLGLNGNSGAAGGGGGWNDNTSLLWAGKSLQEGATGGHSCPQAMKKWGWETRGGFGGGGGGCSSGGGGGGYIGGNAASNNDPEMDGEDGVSFISPLGILYTPALKVMEGHGEVNIKHYLNCSHCEVDECHMDPESHKVICFCDHGTVLAEDGVSCIVSPTPEPHLPLSLILSVVTSALVAALVLAFSGIMIVYRRKHQELQAMQMELQSPEYKLSKLRTSTIMTDYNPNYCFAGKTSSISDLKEVPRKNITLIRGLGHGAFGEVYEGQVSGMPNDPSPLQVAVKTLPEVCSEQDELDFLMEALIISKFNHQNIVRCIGVSLQSLPRFILLELMAGGDLKSFLRETRPRPSQPSSLAMLDLLHVARDIACGCQYLEENHFIHRDIAARNCLLTCPGPGRVAKIGDFGMARDIYRASYYRKGGCAMLPVKWMPPEAFMEGIFTSKTDTWSFGVLLWEIFSLGYMPYPSKSNQEVLEFVTSGGRMDPPKNCPGPVYRIMTQCWQHQPEDRPNFAIILERIEYCTQDPDVINTALPIEYGPLVEEEEKVPVRPKDPEGVPPLLVSQQAKREEERSPAAPPPLPTTSSGKAAKKPTAAEISVRVPRGPAVEGGHVNMAFSQSNPPSELHKVHGSRNKPTSLWNPTYGSWFTEKPTKKNNPIAKKEPHDRGNLGLEGSCTVPPNVATGRLPGASLLLEPSSLTANMKEVPLFRLRHFPCGNVNYGYQQQGLPLEAATAPGAGHYEDTILKSKNSMNQPGP
partner: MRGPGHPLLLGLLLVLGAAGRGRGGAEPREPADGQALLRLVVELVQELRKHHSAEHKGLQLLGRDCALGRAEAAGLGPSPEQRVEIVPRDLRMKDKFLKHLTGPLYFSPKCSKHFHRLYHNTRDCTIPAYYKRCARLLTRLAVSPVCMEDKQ

Variants of: B1
Details: with alkl2_human ALKAL2, Q6UX46

Effect of a mutation on the interaction, disrupting interaction strength:
G893E
G740D
G823D
G934D

Source: IntAct's records for PubMed 26418745
